Where only a bound is given, the exact number is not on record here.

Test [1] deals with T1, Plate bound FcRH5 antigen (UniProt Q96RD9).
T1 sequence (looked up): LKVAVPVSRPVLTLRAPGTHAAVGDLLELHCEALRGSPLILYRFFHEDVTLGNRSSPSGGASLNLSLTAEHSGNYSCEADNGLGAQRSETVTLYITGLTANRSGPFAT
The experiment in a line: cell-based or functional assay.

Test [2] concerns the target T2, Recombinant purified FcRH5 Ig-8 domain (UniProt Q96RD9 743-850, limits assumed).
T2 construct: domain: Ig8
T2 sequence (looked up): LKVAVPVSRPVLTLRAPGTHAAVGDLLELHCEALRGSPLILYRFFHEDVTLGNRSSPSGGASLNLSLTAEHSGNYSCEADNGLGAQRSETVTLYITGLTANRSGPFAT
Put plainly: SPR, Biacore 8k, VHH-mIgG2a Fc captured, FcRH5 Ig8 as analyte, 1:1 Langmuir fit, 25 C; footnote: kd outside instrument limits. The protocol: (§1) Recombinant anti-FcRH5 antibodies in mouse IgG2a format were captured on flow cell 2 on a Series S CM5 chip (GE Healthcare), functionalised with anti-mouse capture kit according to manufacturer's recommendations (GE Healthcare). Antibodies were captured to a density of 160 RU using a Biacore 8k instrument. HBS-P+ buffer was used as running buffer in all experimental conditions. Recombinant purified FcRH5 Ig-8 domain at known concentrations (500 nM with 2-fold serial dilutions) used as the ‘analyte’ and injected over the respective flow cells with 150s contact time and 500s dissociation at 30 μl/minute of flow rate with a constant temperature of 25° C. In each experiment, flow cell 1 was unmodified and used for reference subtraction. A ‘0 concentration’ sensogram of buffer alone was used as a double reference subtraction to factor for drift. Data were fit to a 1:1 Langmuir binding model. Since a capture system was used, a local maximal analytical response (Rmax) parameter was used for the data fitting in each case.

Test [3] addresses T2, Recombinant purified FcRH5 Ig-8 domain. The experiment in a line: SPR, Biacore 8k, VHH-mIgG2a Fc captured by anti-mouse kit on CM5, FcRH5 Ig8 as analyte (500 nM, 2-fold dilutions), 1:1 Langmuir fit, 25 C. The protocol: as §1

B1: Anti-FcRH5 VHH-CAR 66843 (VHH of AU60382), on Jurkat T cells (protein, not shown: large carriers)
chain: QVQLQESGGGLVQAGGSLIVSCAASGRTFSINAMAWFRQAPGKEREFVAAIGGSGRVSSTSYADFVKGRFTISRDNAKNTVYLRMNNLEPEDTAVYYCAARRDYLPFPPESYDYWGQGTQVTVA
In test [1], B1 showed an EC50 (µg/ml) of percentage Nur77 activation by plate bound FcRH5 antigen (µg/ml FcRH5 coating) of 1.97 and a Nur77-mClover positive cells after 24 h 10 µg/ml (% upregulation) of 29.7%.

B2: Anti-FcRH5 VHH-CAR 66833 (VHH of AU60464), on Jurkat T cells (protein, not shown: large carriers)
chain: QVQLQQSGGGLVQPGGSLRLSCAAPGNIFRLNGTGWYRQAPGKQRELVAHITSGGNTDYADSVKGRFTISRDNAKNTVYLQMNSLKPEDTAVYYCNAIPFRLSWGQGTQVTVS
B2: in test [1], the EC50 (µg/ml) of percentage Nur77 activation by plate bound FcRH5 antigen (µg/ml FcRH5 coating) came out at 1.31 and the Nur77-mClover positive cells after 24 h 10 µg/ml (% upregulation) came out at 26.6%.

B3: Anti-FcRH5 VHH-Fc AU60390 (AbVec.aFcRH5.dAb-MIgG2a-Fc.Clone.C06) (Fc fusion)
chain: QVQLQQSGGGLVQAGDSLRLSCAASGRTFSNSTMGWFRQAPGKERKFVAVISWSGGTYAYAESVKGRFTISRDNAKNTVYLQMNSLKPEDTAVYYCAAARKGWSTRGDDYDYWGQGTQVTVS
notes: not shown: murine IgG2a Fc domain
For B3, in test [2], the Kd was under 0.2 nM and the off-rate constant (koff) is under 1e-05 s⁻¹. For the same molecule, in test [3], the kon turned out to be 50000 M⁻¹ s⁻¹.

B4: Anti-FcRH5 VHH-CAR 66832 (VHH of AU60463), on Jurkat T cells (protein, not shown: large carriers)
chain: QVQLQESGGGLVQAGDSLRLSCAYSGRTFSSYAMGWFRQAPGKERVFVAAISRIGGVTTYAESVQGRFTISRDNAKNTLYLQMNALKPEDTAVYYCAAAGLVSISTTPNDYDYWGQGTQVTVS
Take B4: in test [1], the EC50 (µg/ml) of percentage Nur77 activation by plate bound FcRH5 antigen (µg/ml FcRH5 coating) was 2 and the Nur77-mClover positive cells after 24 h 10 µg/ml (% upregulation) came out at 38.4%.

B5: Anti-FcRH5 VHH-Fc AU60387 (AbVec.aFcRH5.dAb-MIgG2a-Fc.Clone.C01) (Fc fusion)
chain: QVQLQESGGGLVQAGGSLRLSCAASGRTFSTYGMGWFRQAPGKEREFVAAISRSGGATAYAASVKGRFTISRDDVKNTLYLQMNSLKPEDTAVYHCAGTRRAFSTGLRDYDYWGQGIQVTVS
notes: VHH fused to murine IgG2a Fc; not shown: murine IgG2a Fc domain
As to B5, in test [2], the Kd was under 0.206 nM and the koff is under 1e-05 s⁻¹. The kon in test [3] turned out to be 48600 M⁻¹ s⁻¹.

B6: Anti-FcRH5 VHH-CAR 66840 (VHH of AU60471), on Jurkat T cells (protein, not shown: large carriers)
chain: QVQLQESGGGLVQAGGSLRLSCAASGSIFSINAMGWYRQAPGKQRELVAFITSGGSTNYADSVKGRFTISRDNAKNTVYLQMNSLKPEDTAVYYCNALGGFVPSYGWGQGTQVTVS
B6: in test [1], the EC50 (µg/ml) of percentage Nur77 activation by plate bound FcRH5 antigen (µg/ml FcRH5 coating) worked out at 1.62 and the Nur77-mClover positive cells after 24 h 10 µg/ml (% upregulation) amounted to 40.7%.

B7: Anti-FcRH5 VHH-CAR 66842 (VHH of AU60370), on Jurkat T cells (protein, not shown: large carriers)
chain: QVQLQESGGGSVQPGGSLSLSCAASGFTFSNYAMSWVRQAPGKGPEWVAVINSDGGTASSAGSVRGRFTISRDNAKNTLYLQMNRLKPEDTAVYYCAANRGFCAGVRCLEYQYWGQGTQVTVS
In the case of B7, in test [1], the EC50 (µg/ml) of percentage Nur77 activation by plate bound FcRH5 antigen (µg/ml FcRH5 coating) is 1.46 and the Nur77-mClover positive cells after 24 h 10 µg/ml (% upregulation) was 36.8%.

Source of the values: patent US20250289891A1 (AUTOLUS, published 2025).
